The values that follow come from the supplement of paper PMC7877785.

± gives the uncertainty stated by the source.

This data set is described as follows: self-splicing fitness, log relative to wild type (ln ratio); higher = more splicing; Tetrahymena group I intron in knt gene, E. coli kanamycin selection, DiMSum; sequences stand for … in CUCUCU…GGAGGGAAAAGUUAUCAGGCAUGCACCUGGUAGCUAGUCUUUAAACCAAUAGAUUGCAUCGGUUUAAAAGGCAAGACCGUCAAAUUGCGGGAAAGGGGUCAACAGCCGUUCAGUACCAAGUCUCAGGGGAAACUUUGAGAUGGCCUUGCAAAGGGUAUGGUAAUAAGCUGACGGACAUGGUCCUAACCACGCAGCCAAGUCCUAAGUCAACAGAUCUUCUGUUGAUAUGGAUGCAGUUCACAGACUAAAUGUCGGUCGGGGAAGAUGUAUUCUUCUCAUAAGAUAUAGUCGGACCUCUCCUUAAUGGGAGCUAGCGGAUGAAGUGAUGCAACACUGGAGCCGCUGGGAACUAAUUUGUAUGCGAAAGUAUAUUGAUUAGUUUUGGAGUACUCGUGGUCG
Summed up:
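Six replicate transformations of E. coli BL21(DE3) with a pET-22b(+) library were grown overnight at 37°C or 30°C. The library randomised all eight P1ex-region intron nucleotides, the intron lying in the knt kanamycin-resistance gene, and plates were LB agar with or without 25 μg/mL kanamycin plus 100 μg/mL carbenicillin, 50 μM IPTG and 0.2% rhamnose. Pooled colonies were amplicon-sequenced on an Illumina HiSeq 2500, and fitness is the DiMSum error-weighted combination of wild-type-normalised replicate fold changes, kanamycin versus none.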

Take AAGGAGCAAUAUUACGCGUG: the “self-splicing fitness (ln)” value (30 °C) is -4.9 ± 0.45 and the “self-splicing fitness (ln)” value (37 °C) was -2.1 ± 0.18. Take AAGGAGCAAUAUUACGCUGA: the “self-splicing fitness (ln)” value by setting is: (30 °C) -3.54 ± 0.23; (37 °C) -1.44 ± 0.15. The corresponding values for AAGGAGCAAUAUUACGGAAU are -3.44 ± 0.25 and -2.71 ± 0.26. For the sequence AAGGAGCAAUAUUACGGAGG, the “self-splicing fitness (ln)” value is, setting by setting: (30 °C) -2.97 ± 0.22; (37 °C) -1.59 ± 0.23. Regarding AAGGAGCAAUAUUACGGCGA, the “self-splicing fitness (ln)” value reads like this: (30 °C) -2.84 ± 0.32; (37 °C) -0.936 ± 0.3.

Turning to AAGGAGCAAUAUUACGGGGG, the “self-splicing fitness (ln)” value (30 °C) was -2.94 ± 0.19 and the “self-splicing fitness (ln)” value (37 °C) is -0.0467 ± 0.21. In the same order, the values of AAGGAGCAAUAUUACGUAGG are -3.12 ± 0.22 and -2.02 ± 0.44. In the case of AAGGAGCAAUAUUACGUUCC, the “self-splicing fitness (ln)” value is -3.48 ± 0.32 (30 °C) and -2.98 ± 0.35 (37 °C). Consider AAGUAGCAAUAUUACGAAAA, for which the “self-splicing fitness (ln)” value reads like this: (30 °C) -2.83 ± 0.28; (37 °C) -2.14 ± 0.26. On to AAGUAGCAAUAUUACGAAGA, for which the “self-splicing fitness (ln)” value (30 °C) is -2.57 ± 0.34 and the “self-splicing fitness (ln)” value (37 °C) is -2.06 ± 0.34. The corresponding values for AAGUAGCAAUAUUACGAAGG are -2.75 ± 0.24 and -3.26 ± 0.47.

With AAGUAGCAAUAUUACGACGG, the “self-splicing fitness (ln)” value (30 °C) is -1.74 ± 0.29 and the “self-splicing fitness (ln)” value (37 °C) is -1.66 ± 0.34.

Consider AAGUAGCAAUAUUACGAGAC, for which the “self-splicing fitness (ln)” value (30 °C) was -2.6 ± 0.33.

As for AAGUAGCAAUAUUACGAGGA, the “self-splicing fitness (ln)” value reads like this: (30 °C) -2.04 ± 0.32; (37 °C) -2.12 ± 0.34. In the same order, the values of AAGUAGCAAUAUUACGCAGC are -3.59 ± 0.34 and -2.3 ± 0.24. In the same order, the values of AAGUAGCAAUAUUACGCAGG are -3.61 ± 0.27 and -1.87 ± 0.15. In the same order, the values of AAGUAGCAAUAUUACGCCAC are -3.93 ± 0.36 and -2.49 ± 0.42. For the sequence AAGUAGCAAUAUUACGCCAU, the “self-splicing fitness (ln)” value (30 °C) was -2.41 ± 0.23 and the “self-splicing fitness (ln)” value (37 °C) is -0.903 ± 0.26. In the case of AAGUAGCAAUAUUACGCCCG, the “self-splicing fitness (ln)” value runs as follows: (30 °C) -1.26 ± 0.23; (37 °C) -0.559 ± 0.22.

Consider AAGUAGCAAUAUUACGCCGA, for which the “self-splicing fitness (ln)” value is -1.53 ± 0.16 (30 °C) and -1.39 ± 0.17 (37 °C). Regarding AAGUAGCAAUAUUACGCGAG, the “self-splicing fitness (ln)” value was -1.74 ± 0.11 (30 °C) and -0.889 ± 0.13 (37 °C). Take AAGUAGCAAUAUUACGCGCG: the “self-splicing fitness (ln)” value was -0.335 ± 0.087 (30 °C) and -0.184 ± 0.12 (37 °C). As for AAGUAGCAAUAUUACGCGUU, the “self-splicing fitness (ln)” value runs as follows: (30 °C) -2.09 ± 0.18; (37 °C) -0.705 ± 0.17. On to AAGUAGCAAUAUUACGCUGG, for which the “self-splicing fitness (ln)” value runs as follows: (30 °C) -2 ± 0.12; (37 °C) -0.92 ± 0.12. On to AAGUAGCAAUAUUACGGACA, for which the “self-splicing fitness (ln)” value is -1.7 ± 0.12 (30 °C) and -0.343 ± 0.12 (37 °C). For AAGUAGCAAUAUUACGGAGA, the “self-splicing fitness (ln)” value was -3.93 ± 0.37 (30 °C) and -2.34 ± 0.39 (37 °C). In the same order, the values of AAGUAGCAAUAUUACGGCCU are -0.0359 ± 0.073 and -0.35 ± 0.091. Consider AAGUAGCAAUAUUACGGGCC, for which the “self-splicing fitness (ln)” value (37 °C) was -1.88 ± 0.37.

Regarding AAGUAGCAAUAUUACGGUAU, the “self-splicing fitness (ln)” value (30 °C) is -2.25 ± 0.097 and the “self-splicing fitness (ln)” value (37 °C) was -1.88 ± 0.092. As for AAGUAGCAAUAUUACGGUUU, the “self-splicing fitness (ln)” value is, setting by setting: (30 °C) -0.353 ± 0.064; (37 °C) -0.458 ± 0.098. In the case of AAGUAGCAAUAUUACGUAUA, the “self-splicing fitness (ln)” value (30 °C) was -1.96 ± 0.13 and the “self-splicing fitness (ln)” value (37 °C) was -2.15 ± 0.14. For AAGUAGCAAUAUUACGUUGA, the “self-splicing fitness (ln)” value is -3.64 ± 0.32 (30 °C) and -2.29 ± 0.22 (37 °C). Regarding AAGUAGCAAUAUUACGUUUU, the “self-splicing fitness (ln)” value runs as follows: (30 °C) -2.71 ± 0.13; (37 °C) -2.17 ± 0.17. On to AAUAAGCAAUAUUACGACGA, for which the “self-splicing fitness (ln)” value (30 °C) is -0.785 ± 0.11 and the “self-splicing fitness (ln)” value (37 °C) was -0.362 ± 0.14.
